Test results reported in article PMC7865317, “Coupling of a Novel TIMP3 Peptide to Carboxypeptidase G2 for Pro-Drug Activation at the Tumour Site” (Molecules, 2021).

Molecular target: T1, VEGFR2-immunoglobulin Fc fusion protein (UniProt P35968 20-764)
T1 construct: VEGFR2 (vascular endothelial growth factor receptor 2); Probably the extracellular domain of VEGFR2 fused to an IgG Fc, as sold by R&D Systems (surmise); also called VEGFR2-Fc; source: bought: R&D Systems
Test: BLI; BLItz system; VEGFR2-Fc (5 uL at 250 ug/mL) loaded on protein A-coated probes for 300 s; CPG2 or CPG2-p700 in the drop holder, five runs at 600 nM to 10 uM; PBS
Details: both partners purified

T1 sequence (P35968 20-764): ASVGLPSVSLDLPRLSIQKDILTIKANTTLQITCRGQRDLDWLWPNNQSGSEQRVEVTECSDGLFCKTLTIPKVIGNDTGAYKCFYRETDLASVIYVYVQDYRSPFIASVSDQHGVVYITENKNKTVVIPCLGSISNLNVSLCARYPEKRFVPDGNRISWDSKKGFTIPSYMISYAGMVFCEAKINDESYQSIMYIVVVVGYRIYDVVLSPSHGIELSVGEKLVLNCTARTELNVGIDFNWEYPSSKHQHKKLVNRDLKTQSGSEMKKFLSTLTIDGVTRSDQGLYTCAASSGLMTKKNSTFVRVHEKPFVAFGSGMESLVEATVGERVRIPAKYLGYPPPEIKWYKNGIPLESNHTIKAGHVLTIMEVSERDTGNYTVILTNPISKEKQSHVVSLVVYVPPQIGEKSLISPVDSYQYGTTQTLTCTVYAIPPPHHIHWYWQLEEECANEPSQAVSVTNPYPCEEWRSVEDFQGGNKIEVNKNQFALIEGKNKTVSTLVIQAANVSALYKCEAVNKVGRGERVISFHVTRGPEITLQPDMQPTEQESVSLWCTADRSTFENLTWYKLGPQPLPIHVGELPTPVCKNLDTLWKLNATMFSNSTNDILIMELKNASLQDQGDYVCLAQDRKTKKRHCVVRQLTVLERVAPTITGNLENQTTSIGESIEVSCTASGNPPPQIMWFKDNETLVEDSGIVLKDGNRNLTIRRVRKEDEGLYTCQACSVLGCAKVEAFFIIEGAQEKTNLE

B1: recombinant codon-optimised carboxypeptidase G2 (CPG2-His) (enzyme, Pseudomonas aeruginosa strain RS-16, UniProt P06621 23-415, looked up)
chain: ALAQKRDNVLFQAATDEQPAVIKTLEKLVNIETGTGDAEGIAAAGNFLEAELKNLGFTVTRSKSAGLVVGDNIVGKIKGRGGKNLLLMSHMDTVYLKGILAKAPFRVEGDKAYGPGIADDKGGNAVILHTLKLLKEYGVRDYGTITVLFNTDEEKGSFGSRDLIQEEAKLADYVLSFEPTSAGDEKLSLGTSGIAYVQVNITGKASHAGAAPELGVNALVEASDLVLRTMNIDDKAKNLRFNWTIAKAGNVSNIIPASATLNADVRYARNEDFDAAMKTLEERAQQKKLPEADVKVIVTRGRPAFNAGEGGKKLVDKAVAYYKEAGGTLGVEERTGGGTDAAYAALSGKPVIESLGLPGFGYHSDKAEYVDISAIPRRLYMAARLIMDLGAGK
notes: carboxypeptidase G2 (CPG2, glucarpidase), gene codon optimised for E. coli (Goda et al. 2009), approximately 1200 bp; Expected size 45 kDa; Cloned NdeI/NotI into pET28a, which may add an N-terminal His tag from the vector (surmise); construct in Supplementary Data S1; also called CPG2 alone; CPG2-only; source: E. coli BL21 (DE3), purified by Ni2+-NTA chromatography from pooled 2 M urea washes of …
Kd: 15 µM
